The chains are these.
B1: BCMA-7 CAR (139106) (protein)
chain: EVQLVETGGGLVQPGGSLRLSCAVSGFALSNHGMSWVRRAPGKGLEWVSGIVYSGSTYYAASVKGRFTISRDNSRNTLYLQMNSLRPEDTAIYYCSAHGGESDVWGQGTTVTVSSASGGGGSGGRASGGGGSEIVMTQSPATLSVSPGERATLSCRASQSVSSKLAWYQQKPGQAPRLLMYGASIRATGIPDRFSGSGSGTEFTLTISSLEPEDFAVYYCQQYGSSSWTFGQGTKVEIKTTTPAPRPPTPAPTIASQPLSLRPEACRPAAGGAVHTRGLDFACDIYIWAPLAGTCGVLLLSLVITLYCKRGRKKLLYIFKQPFMRPVQTTQEEDGCSCRFPEEEEGGCELRVKFSRSADAPAYKQGQNQLYNELNLGRREEYDVLDKRRGRDPEMGGKPRRKNPQEGLYNELQKDKMAEAYSEIGMKGERRRGKGHDGLYQGLSTATKDTYDALHMQALPPR
B2: BCMA-1 CAR (139100) (protein)
chain: QVQLVQSGAEVRKTGASVKVSCKASGYIFDNFGINWVRQAPGQGLEWMGWINPKNNNTNYAQKFQGRVTITADESTNTAYMEVSSLRSEDTAVYYCARGPYYYQSYMDVWGQGTMVTVSSASGGGGSGGRASGGGGSDIVMTQTPLSLPVTPGEPASISCRSSQSLLHSNGYNYLNWYLQKPGQSPQLLIYLGSKRASGVPDRFSGSGSGTDFTLHITRVGAEDVGVYYCMQALQTPYTFGQGTKLEIKTTTPAPRPPTPAPTIASQPLSLRPEACRPAAGGAVHTRGLDFACDIYIWAPLAGTCGVLLLSLVITLYCKRGRKKLLYIFKQPFMRPVQTTQEEDGCSCRFPEEEEGGCELRVKFSRSADAPAYKQGQNQLYNELNLGRREEYDVLDKRRGRDPEMGGKPRRKNPQEGLYNELQKDKMAEAYSEIGMKGERRRGKGHDGLYQGLSTATKDTYDALHMQALPPR
B3: BCMA-4NP tool CAR (126021) (protein, not shown: a dimerising Fc or GST)
chain: QVQLVQSGAEVKKPGSSVKVSCKASGGTFSNYWMHWVRQAPGQGLEWMGATYRGHSDTYYNQKFKGRVTITADKSTSTAYMELSSLRSEDTAVYYCARGAIYNGYDVLDNWGQGTLVTVSSGGGGSGGGGSGGGGSGGGGSDIQMTQSPSSLSASVGDRVTITCSASQDISNYLNWYQQKPGKAPKLLIYYTSNLHSGVPSRFSGSGSGTDFTLTISSLQPEDFATYYCQQYRKLPWTFGQGTKLEIKR
B4: BCMA-4 CAR (139103) (protein)
chain: QVQLVESGGGLVQPGRSLRLSCAASGFTFSNYAMSWVRQAPGKGLGWVSGISRSGENTYYADSVKGRFTISRDNSKNTLYLQMNSLRDEDTAVYYCARSPAHYYGGMDVWGQGTTVTVSSASGGGGSGGRASGGGGSDIVLTQSPGTLSLSPGERATLSCRASQSISSSFLAWYQQKPGQAPRLLIYGASRRATGIPDRFSGSGSGTDFTLTISRLEPEDSAVYYCQQYHSSPSWTFGQGTKLEIKTTTPAPRPPTPAPTIASQPLSLRPEACRPAAGGAVHTRGLDFACDIYIWAPLAGTCGVLLLSLVITLYCKRGRKKLLYIFKQPFMRPVQTTQEEDGCSCRFPEEEEGGCELRVKFSRSADAPAYKQGQNQLYNELNLGRREEYDVLDKRRGRDPEMGGKPRRKNPQEGLYNELQKDKMAEAYSEIGMKGERRRGKGHDGLYQGLSTATKDTYDALHMQALPPR
B5: BCMA-5 CAR (139104) (protein)
chain: EVQLLETGGGLVQPGGSLRLSCAVSGFALSNHGMSWVRRAPGKGLEWVSGIVYSGSTYYAASVKGRFTISRDNSRNTLYLQMNSLRPEDTAIYYCSAHGGESDVWGQGTTVTVSSASGGGGSGGRASGGGGSEIVLTQSPATLSVSPGESATLSCRASQSVSSNLAWYQQKPGQAPRLLIYGASTRASGIPDRFSGSGSGTDFTLTISSLQAEDVAVYYCQQYGSSLTFGGGTKVEIKTTTPAPRPPTPAPTIASQPLSLRPEACRPAAGGAVHTRGLDFACDIYIWAPLAGTCGVLLLSLVITLYCKRGRKKLLYIFKQPFMRPVQTTQEEDGCSCRFPEEEEGGCELRVKFSRSADAPAYKQGQNQLYNELNLGRREEYDVLDKRRGRDPEMGGKPRRKNPQEGLYNELQKDKMAEAYSEIGMKGERRRGKGHDGLYQGLSTATKDTYDALHMQALPPR

For the assay, the target named is B-cell maturation antigen (BCMA) expressed on cells (human), Q02223. The assay is described as follows: cell-based or functional assay.
Chain of B-cell maturation antigen (BCMA) expressed on cells (human), Q02223 (Q02223 whole entry): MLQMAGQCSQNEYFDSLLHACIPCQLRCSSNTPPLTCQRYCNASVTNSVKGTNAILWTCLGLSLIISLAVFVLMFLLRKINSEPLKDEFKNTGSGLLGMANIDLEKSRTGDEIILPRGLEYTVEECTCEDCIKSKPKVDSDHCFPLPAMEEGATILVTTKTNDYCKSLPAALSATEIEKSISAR
B1: the Cell killing EC50; KMS11-luc was found to be 0.15 not printed; the JNL binding assay, ratio to K562; K562-BCMA was determined as 2.55; the JNL binding assay, ratio to K562; NCI-H929 turned out to be 2.36; the JNL binding assay, ratio to K562; RPMI 8226 turned out to be 2.77. Also, the Proliferation, CD3 ratio to no target; K562-BCMA amounted to 1.72; the Proliferation, CD3 ratio to no target; KMS11-luc came out at 1.71; the Proliferation, CD3 ratio to no target; NCI-H929 was found to be 1.8; the Proliferation, CD3 ratio to no target; RPMI 8226 was found to be 1.62. Besides, the Proliferation, CD4 ratio to no target; K562-BCMA is 2.17; the Proliferation, CD4 ratio to no target; KMS11-luc came to 1.96; the Proliferation, CD4 ratio to no target; NCI-H929 is 2.23; the Proliferation, CD4 ratio to no target; RPMI 8226 was 1.91. The Proliferation, CD8 ratio to no target; K562-BCMA was 1.08; the Proliferation, CD8 ratio to no target; KMS11-luc was 1.35; the Proliferation, CD8 ratio to no target; NCI-H929 was found to be 1.18; the Proliferation, CD8 ratio to no target; RPMI 8226 turned out to be 1.19.
B2: the Cell killing EC50; KMS11-luc was found to be 0.68 not printed; the JNL binding assay, ratio to K562; K562-BCMA turned out to be 4.6; the JNL binding assay, ratio to K562; NCI-H929 was 4.55; the JNL binding assay, ratio to K562; RPMI 8226 turned out to be 5.06. For the same molecule, the Proliferation, CD3 ratio to no target; K562-BCMA was determined as 1.59; the Proliferation, CD3 ratio to no target; KMS11-luc amounted to 1.38; the Proliferation, CD3 ratio to no target; NCI-H929 was 4.97; the Proliferation, CD3 ratio to no target; RPMI 8226 was determined as 2.96. The Proliferation, CD4 ratio to no target; K562-BCMA turned out to be 1.57; the Proliferation, CD4 ratio to no target; KMS11-luc amounted to 1.24; the Proliferation, CD4 ratio to no target; NCI-H929 is 5.57; the Proliferation, CD4 ratio to no target; RPMI 8226 amounted to 2.43. The Proliferation, CD8 ratio to no target; K562-BCMA amounted to 1.61; the Proliferation, CD8 ratio to no target; KMS11-luc stood at 1.56; the Proliferation, CD8 ratio to no target; NCI-H929 was 4.14; the Proliferation, CD8 ratio to no target; RPMI 8226 worked out at 3.58.
Turning to B3, the Cell killing EC50; KMS11-luc is 0.12 not printed; the JNL binding assay, ratio to K562; K562-BCMA worked out at 3.15; the JNL binding assay, ratio to K562; NCI-H929 was 2.27; the JNL binding assay, ratio to K562; RPMI 8226 was 3.54. Besides, the Proliferation, CD3 ratio to no target; K562-BCMA was 5.52; the Proliferation, CD3 ratio to no target; KMS11-luc came to 5.41; the Proliferation, CD3 ratio to no target; NCI-H929 came out at 6.52; the Proliferation, CD3 ratio to no target; RPMI 8226 was 5.83. The Proliferation, CD4 ratio to no target; K562-BCMA is 8.5; the Proliferation, CD4 ratio to no target; KMS11-luc was 5.54; the Proliferation, CD4 ratio to no target; NCI-H929 is 8.98; the Proliferation, CD4 ratio to no target; RPMI 8226 worked out at 8.5. Moreover, the Proliferation, CD8 ratio to no target; K562-BCMA was 3.06; the Proliferation, CD8 ratio to no target; KMS11-luc came out at 5.2; the Proliferation, CD8 ratio to no target; NCI-H929 amounted to 4.31; the Proliferation, CD8 ratio to no target; RPMI 8226 was 3.49.
With B4, the Cell killing EC50; KMS11-luc stood at 0.13 not printed; the JNL binding assay, ratio to K562; K562-BCMA came out at 4.47; the JNL binding assay, ratio to K562; NCI-H929 is 3.31; the JNL binding assay, ratio to K562; RPMI 8226 amounted to 6.25. For the same molecule, the Proliferation, CD3 ratio to no target; K562-BCMA was 7.37; the Proliferation, CD3 ratio to no target; KMS11-luc was 8.63; the Proliferation, CD3 ratio to no target; NCI-H929 worked out at 8.64; the Proliferation, CD3 ratio to no target; RPMI 8226 worked out at 8.14. In addition, the Proliferation, CD4 ratio to no target; K562-BCMA was 9.21; the Proliferation, CD4 ratio to no target; KMS11-luc turned out to be 8.6; the Proliferation, CD4 ratio to no target; NCI-H929 is 9.86; the Proliferation, CD4 ratio to no target; RPMI 8226 was determined as 10.1. Further, the Proliferation, CD8 ratio to no target; K562-BCMA stood at 5.66; the Proliferation, CD8 ratio to no target; KMS11-luc amounted to 8.74; the Proliferation, CD8 ratio to no target; NCI-H929 turned out to be 7.42; the Proliferation, CD8 ratio to no target; RPMI 8226 stood at 6.19.
Turning to B5, the Cell killing EC50; KMS11-luc is 0.21 not printed; the JNL binding assay, ratio to K562; K562-BCMA stood at 2.34; the JNL binding assay, ratio to K562; NCI-H929 came out at 2.34; the JNL binding assay, ratio to K562; RPMI 8226 turned out to be 2.4. The Proliferation, CD3 ratio to no target; K562-BCMA is 1.62; the Proliferation, CD3 ratio to no target; KMS11-luc turned out to be 1.61; the Proliferation, CD3 ratio to no target; NCI-H929 was found to be 1.72; the Proliferation, CD3 ratio to no target; RPMI 8226 was found to be 1.73. For the same molecule, the Proliferation, CD4 ratio to no target; K562-BCMA came to 2.19; the Proliferation, CD4 ratio to no target; KMS11-luc was 1.9; the Proliferation, CD4 ratio to no target; NCI-H929 came to 2.23; the Proliferation, CD4 ratio to no target; RPMI 8226 came out at 2.15. Moreover, the Proliferation, CD8 ratio to no target; K562-BCMA was 0.99; the Proliferation, CD8 ratio to no target; KMS11-luc is 1.27; the Proliferation, CD8 ratio to no target; NCI-H929 was found to be 1.11; the Proliferation, CD8 ratio to no target; RPMI 8226 is 1.25.
